US20050037477A1 (BOARD OF REGENTS OF THE UNIVERSITY OF OKLAHOMA, published 2005)

Target: T1, human C-terminal HPC-4 epitope-tagged C1β3Gal-T (core 1 β3-galactosyltransferase), full-length (human, UniProt Q9NS00 1-363)
T1 construct: mature; also called HPC4-tagged C1β3Gal-T; recombinant C1β3Gal-T
Assay: Ni-NTA capture of His6-tagged wtCosmc-1 from Hi-5 and 293T cell extracts, C1β3Gal-T activity on the beads
Description: Capture of Human Cosmc-1 on Ni-NTA-Superflow-The Ni-NTA-Superflow beads (100 ml) (Qiagen, Inc.) equilibrated with the Ni-NTA washing buffer containing 50 mM NaH₂PO₄, 300 mM NaCl, 20 mM imidazole, 0.1% Triton X-100 (pH 7.8) were incubated with the cell extracts overnight at 4° C. on a rotator. The beads were washed 5 times with 1 ml of the washing buffer. One portion of the beads was removed for C1β3Gal-T enzyme assay. The bound material in the other portion was eluted with 100 ml of eluting solution (50 mM NaH₂PO₄, 300 mM NaCl, 250 mM imidazole, and 0.1% Triton X-100).
To confirm that Cosmc-1 and C1β3Gal-T can associate, we performed Western Blots on the HPC4-tagged C1β3Gal-T expressed in Hi5 cells and 293T cells with or without His₆-tagged wtCosmc-1 or mCosmc-1. When HPC4-tagged C1β3Gal-T was expressed in Hi5 cells in the absence or presence of wtCosmc-1 or mCosmc-1, a considerable amount protein was generated (FIG. 2G), but the enzyme lacked activity except when co-expressed with wtCosmc-1 (FIG. 2A-C). More importantly, HPC4-tagged C1β3Gal-T was present with His₆-tagged wtCosmc-1 when the latter was captured on Ni-NTA (FIGS. 2G,H). […] There was a slight amount of HPC4-tagged C1β3Gal-T detected in the Ni-NTA bound material in the absence of His₆-tagged wtCosmc-1 in 293T cells (FIG. 2H). […]

T1 sequence (Q9NS00 other isoform, or with tags, fused parts or gaps): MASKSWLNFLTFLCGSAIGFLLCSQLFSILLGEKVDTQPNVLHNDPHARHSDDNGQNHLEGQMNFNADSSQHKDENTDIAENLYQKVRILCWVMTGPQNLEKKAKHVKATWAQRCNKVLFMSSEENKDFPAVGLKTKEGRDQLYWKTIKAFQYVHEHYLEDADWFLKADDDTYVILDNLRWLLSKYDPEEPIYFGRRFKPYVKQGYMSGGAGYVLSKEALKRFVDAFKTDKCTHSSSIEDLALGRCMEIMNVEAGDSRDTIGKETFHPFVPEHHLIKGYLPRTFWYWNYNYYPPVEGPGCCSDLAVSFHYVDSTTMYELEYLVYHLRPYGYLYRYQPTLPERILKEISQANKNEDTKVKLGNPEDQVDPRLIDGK

B1: human C-terminal His6-tagged Cosmc-1 (wild-type; Core 1 β3-Gal-T Specific Molecular Chaperone-1) (other)
chain: MLSESSSFLKGVMLGSIFCALITMLGHIRIGHGNRMHHHEHHHLQAPNKEDILKISEDERMELSKSFRVYCIILVKPKDVSLWAAVKETWTKHCDKAEFFSSENVKVFESINMDTNDMWLMMRKAYKYAFDKYRDQYNWFFLARPTTFAIIENLKYFLLKKDPSQPFYLGHTIKSGDLEYVGMEGGIVLSVESMKRLNSLLNIPEKCPEQGGMIWKISEDKQLAVCLKYAGVFAENAEDADGKDVFNTKSVGLSIKEAMTYHPNQVVEGCCSDMAVTFNGLTPNQMHVMMYGVYRLRAFGHIFNDALVFLPPNGSDNDHHHHHH
notes: Co-expressed with C1β3Gal-T in Hi-5 insect cells or 293T cells and captured from Triton X-100 cell extracts on Ni-NTA; also called wtCosmc-1; wt-Cosmc-1
- binding result: binds
